Changes are numbered by the printed parent chain.
T1: human CTGF (Homo sapiens, UniProt P29279, H83D)
T1 construct: purchased R&D Systems
T1 sequence (P29279 27-349 H83D): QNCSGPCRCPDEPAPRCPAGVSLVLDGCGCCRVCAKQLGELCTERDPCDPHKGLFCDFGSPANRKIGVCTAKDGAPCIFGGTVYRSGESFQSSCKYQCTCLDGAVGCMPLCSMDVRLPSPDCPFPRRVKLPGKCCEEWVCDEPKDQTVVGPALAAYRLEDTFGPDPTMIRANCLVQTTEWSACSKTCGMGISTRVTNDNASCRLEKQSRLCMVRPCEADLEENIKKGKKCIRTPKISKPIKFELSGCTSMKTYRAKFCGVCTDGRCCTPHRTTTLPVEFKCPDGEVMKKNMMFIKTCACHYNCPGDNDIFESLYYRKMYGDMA

T2: Murine CTGF (Mus musculus, UniProt P29268)
T2 construct: purchased Abbexa
T2 sequence (P29268 26-348): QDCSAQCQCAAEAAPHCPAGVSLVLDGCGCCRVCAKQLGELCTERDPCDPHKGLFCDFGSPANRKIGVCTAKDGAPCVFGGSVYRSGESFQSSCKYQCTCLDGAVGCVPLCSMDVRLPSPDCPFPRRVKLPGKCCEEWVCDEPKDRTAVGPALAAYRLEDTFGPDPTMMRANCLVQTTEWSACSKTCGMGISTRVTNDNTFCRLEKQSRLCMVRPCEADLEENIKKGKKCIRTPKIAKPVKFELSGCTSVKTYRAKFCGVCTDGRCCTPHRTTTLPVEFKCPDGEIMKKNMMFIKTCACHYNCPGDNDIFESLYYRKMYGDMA

T3: Rat CTGF (Rattus norvegicus, UniProt Q9R1E9)
T3 construct: purchased R&D Systems
T3 sequence (Q9R1E9 25-347): T2 sequence (P29268 26-348) with H16R, A148V

B1: SEQ ID NO: 7: parent CTGF-binding hNGAL lipocalin mutein (protein)
chain: QDSTSDLIPAPPLSKVPLQQNFQDNQFHGKWYVVGLAGNYGLRTDKRPSKMFATIYELKEDKSYDVTSVRFEQERCHYTIRTFVPGSQPGEFTTGSIKSRPGQTSSLVRVVSTNYNQHAMVFFKSVIQNREYFAITLYGRTKELTSELKENFIRFSKSLGLPENHIVFPVPIDQCIDG
modifications: lipocalin mutein
B2: SEQ ID NO: 29: parent CTGF-binding hNGAL lipocalin mutein (protein)
chain: QDSTSDLIPAPPLSKVPLQQNFQDNQFHGKWYVVGWAGNIKLREDKDPFKMSATIYELKEDKSYNVTEVVFEQKKCHYIIKTFVPGSQPGEFTLGDIKSPPGETSSLVRVVSTNYNQHAMVFFKKVFQNREFFWITLYGRTKELTSELKENFIRFSKSLGLPENHIVFPVPIDQCIDG
modifications: lipocalin mutein
B3: SEQ ID NO: 9: parent CTGF-binding hNGAL lipocalin mutein (protein)
chain: QDSTSDLIPAPPLSKVPLQQNFQDNQFHGKWYVVGLAGNKILRIDKQPAKMFATIYELKEDKSYDVTSVRFEARSCSYTIKTFVPGSQPGEFTAGNIKSAPGQTSTLVRVVSTNYNQHAMVFFKHVSQNRETFVITLYGRTKELTSELKENFIRFSKSLGLPENHIVFPVPIDQCIDG
modifications: lipocalin mutein
B4: SEQ ID NO: 3: parent CTGF-binding hNGAL lipocalin mutein (protein)
chain: QDSTSDLIPAPPLSKVPLQQNFQDNQFHGKWYVVGRAGNNRLREDKDPPKMWATIYELKEDKSYNVTHVHFMTKKCRYIIDTFVPGSQPGEFTLGAIKSGPGMTSPLVRIVSTNYNQHAMVFFKWVNQNREWFTITLYGRTKELTSELKENFIRFSKSLGLPENHIVFPVPIDQCIDG
modifications: lipocalin mutein
B5: SEQ ID NO: 25: parent CTGF-binding hNGAL lipocalin mutein (protein)
chain: QDSTSDLIPAPPLSKVPLQQNFQDNQFHGKWYVVGMAGNFRLREDKDPSKMGATIYELKEDKSYNVTQVQFDDKKCLYVIETFVPGSQPGEFTLGAIKSFPGFTSQLVRVVSTNYNQHAMVFFKKVYQNREVFWITLYGRTKELTSELKENFIRFSKSLGLPENHIVFPVPIDQCIDG
modifications: lipocalin mutein
B6: SEQ ID NO: 23: optimized CTGF-binding hNGAL lipocalin mutein (protein)
chain: B3 chain with H28Q, L36V, K40A, I44P, R74K, S77K, A94S, N96Q, T132I
modifications: lipocalin mutein
B7: SEQ ID NO: 15: optimized CTGF-binding hNGAL lipocalin mutein (protein)
chain: B3 chain with H28Q, K40A, I44E, R74K, S77K, N96Y, S127T, T132I
modifications: lipocalin mutein

The molecules below were run against T1, human CTGF (assay: ELISA binding to full-length human CTGF (Example 9)). Details: coated 1 μg/ml, muteins from 1000 nM, read-out: EC Human CTGF.
Procedure: Binding of muteins to fragments of human and murine CTGF was tested by an ELISA assay. In detail, a 384-well plate suitable for fluorescence measurements (Greiner FLUOTRAC™ 600, black flat bottom, high-binding) was coated with 20 μl of human (R&D Systems, SEQ ID NO 79) and murine CTGF (Biozol, SEQ ID NO: 80) or fragments thereof (Evitria, huCTGF domains 1 and 2 with human Fc tag (SEQ ID NO 77) and muCTGF domains 1 and 2 with human Fc tag (SEQ ID NO 78)) at a concentration of 1 μg/ml in PBS over night at 4° C. After washing with PBS with 0.05% Tween 20, wells were blocked with 100 μl blocking buffer containing 0.1% Tween 20 and 2% BSA (PBS-T/BSA) for 1 h at room temperature. 20 μl of serially diluted muteins starting at 1000 nM were incubated in PBS-T/BSA for 1 h at room temperature.
The residual supernatants were discarded and 20 μl HRP-labeled anti-Strep-Tag antibody was added at a predetermined optimal concentration in PBS-T/BSA and incubated for 1 h at RT. After washing, 20 μl fluorogenic HRP substrate (QuantaBlu, Thermo) was added to each well, and the reaction was allowed to proceed for 5 to 25 minutes. The fluorescence intensity of every well on the plate was read using a fluorescence microplate reader (Tecan). Curve fitting was performed using GraphPad Prism 7 software.

EC50 [nM]	Molecule
34	B1
11	B2
14	B3
6.9	B4
11	B5

These molecules were tested against T2, Murine CTGF (assay: SPR binding kinetics and affinity, murine CTGF). Details: 25° C., 1:1 binding model.
Design: key to Murine CTGF kon / Murine CTGF koff / Murine CTGF KD: B binding without determination of kinetics constants
Method in brief: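 Targets either amine-coupled to CM5 chip (300–1100 RU; Fc-tagged human, untagged rat/murine) or Fc-captured via anti-human IgG; muteins injected 180 s contact, 900–3600 s dissociation, 30 μL/min, 25° C. Double-referenced sensorgrams fit to 1:1 model giving kon, koff and KD.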

Murine CTGF KD	Murine CTGF koff	Murine CTGF kon	Kd [nM]	Molecule
B	B	B		B1
B	B	B		B6
	0.000832 s⁻¹	133000 M⁻¹ s⁻¹	6.26	B3
	4.51e-05 s⁻¹	129000 M⁻¹ s⁻¹		B7
B	B	B		B4

These molecules were tested against T4, Human CTGF with a human IgG1 Fc Tag (Homo sapiens, UniProt P29279, H83D) (assay: SPR epitope analysis (simultaneous binding)). Details: not given.
T4 construct: purchased Creative Biomart
Procedure: Surface plasmon resonance (SPR) was used to analyze the epitopes and determine simultaneous binding of different lipocalin muteins. Human CTGF with a human IgG1 Fc Tag was directly immobilized to a CM5 Chip (Creative Biomart, 10 μg/mL in 10 mM sodium acetate pH 4.5) until an immobilization level of 470-630 resonance units was achieved. The reference channel was activated/deactivated. […] As control, single lipocalin muteins were injected and the resulting signal of single and mixtures was compared at the end of the injection. The chip was regenerated with 3 M MgCl2 and Glycine-HCl pH1.5 for each 60 s at a flowrate of 15 μL/min.
“Yes” means simultaneous binding is possible, “no” stands for same or overlapping epitope, “n.t.” stands for not tested.

T4 sequence (P29279 with tags, fused parts or gaps H83D): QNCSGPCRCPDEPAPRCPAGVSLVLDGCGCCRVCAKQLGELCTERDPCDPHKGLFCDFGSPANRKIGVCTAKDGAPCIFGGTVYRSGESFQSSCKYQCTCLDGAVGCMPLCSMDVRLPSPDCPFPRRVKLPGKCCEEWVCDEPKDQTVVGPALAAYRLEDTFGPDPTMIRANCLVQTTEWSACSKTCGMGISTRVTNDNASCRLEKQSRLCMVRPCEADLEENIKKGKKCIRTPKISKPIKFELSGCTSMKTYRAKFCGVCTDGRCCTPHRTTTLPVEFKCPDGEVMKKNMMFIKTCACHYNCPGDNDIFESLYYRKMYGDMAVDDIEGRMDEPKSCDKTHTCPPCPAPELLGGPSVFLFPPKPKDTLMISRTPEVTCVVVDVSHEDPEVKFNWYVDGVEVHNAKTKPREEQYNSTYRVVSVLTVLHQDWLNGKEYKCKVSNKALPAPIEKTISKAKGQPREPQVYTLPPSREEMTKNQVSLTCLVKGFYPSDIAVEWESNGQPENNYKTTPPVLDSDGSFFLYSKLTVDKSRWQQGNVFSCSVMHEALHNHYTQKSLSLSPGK

Epitope overlap with anti-CTGF antibody of SEQ ID NOs: 60 and 61	Molecule
overlapped	B6

Same assay, conditions: SPR, mixed and injected simultaneously at 750 nM or 1000 nM

Simultaneous binding with SEQ ID NO: 7	Simultaneous binding with SEQ ID NO: 9	Simultaneous binding with SEQ ID NO: 25	Simultaneous binding with SEQ ID NO: 29	Simultaneous binding with SEQ ID NO: 60 and 61 (control antibody)	Simultaneous binding with SEQ ID NO: 3	Molecule
no	no	yes	yes	no		B1
yes	yes	no	no	yes		B2
no	no	yes	yes	no		B3
				yes	no	B4
yes	yes	no	no	yes		B5

These molecules were tested against T3, Rat CTGF (assay: ELISA binding to rat CTGF (Example 9)). Details: muteins from 1000 nM.

EC Rat CTGF	Molecule
weak	B4

Same assay, conditions: muteins from 1000 nM, read-out: EC Rat CTGF

EC50 [nM]	Molecule
41	B1
20	B2
30	B3
23	B5
